Laboratory results as given in patent US20230192890A1.

What was measured:
[1] = target: full-length recombinant mouse PAD4 (mouse) (UniProt Q9Z183); test: ELISA, mouse PAD4 on plate, antibody 0.0002441 ug/mL
[2] = target: full-length recombinant mouse PAD4 (mouse) (UniProt Q9Z183); test: ELISA, mouse PAD4 on plate, antibody 0.0039063 ug/mL
[3] = target: full-length recombinant mouse PAD4 (mouse) (UniProt Q9Z183); test: ELISA, mouse PAD4 on plate, antibody 0.0009766 ug/mL
[4] = target: full-length recombinant mouse PAD4 (mouse) (UniProt Q9Z183); test: ELISA, mouse PAD4 on plate, antibody 0.015625 ug/mL
[5] = target: full-length recombinant mouse PAD4 (mouse) (UniProt Q9Z183); test: ELISA, mouse PAD4 on plate, antibody 6.104E-05 ug/mL
[6] = target: full-length recombinant mouse PAD4 (mouse) (UniProt Q9Z183); test: ELISA, mouse PAD4 on plate, antibody 1 ug/mL
[7] = target: full-length recombinant mouse PAD4 (mouse) (UniProt Q9Z183); test: ELISA, mouse PAD4 on plate, antibody 0.25 ug/mL
[8] = target: T1, Ala mutant SEQ ID NO: 37 (human); test: ELISA, peptide on plate (10 ug/mL)
T1 sequence (peptide): EENMDDQWMQAEMEIGY

[9] = target: T2, TA0096 (peptide antigen corresponding to positions 340 to 356 of PAD4) (human); test: ELISA, peptide on plate (10 ug/mL)
T2 sequence (peptide): EENMDDQWMQDEMEIGY

[10] = target: T3, Ala mutant SEQ ID NO: 42 (human); test: ELISA, peptide on plate (10 ug/mL)
T3 sequence (peptide): EENMDDQWMQDEMEIAY

[11] = target: T4, Ala mutant SEQ ID NO: 28 (human); test: ELISA, peptide on plate (10 ug/mL)
T4 sequence (peptide): EANMDDQWMQDEMEIGY

[12] = target: T5, Ala mutant SEQ ID NO: 43 (human); test: ELISA, peptide on plate (10 ug/mL)
T5 sequence (peptide): EENMDDQWMQDEMEIGA

[13] = target: T6, Ala mutant SEQ ID NO: 27 (human); test: ELISA, peptide on plate (10 ug/mL)
T6 sequence (peptide): AENMDDQWMQDEMEIGY

[14] = target: T7, Ala mutant SEQ ID NO: 38 (human); test: ELISA, peptide on plate (10 ug/mL)
T7 sequence (peptide): EENMDDQWMQDAMEIGY

[15] = target: T8, Ala mutant SEQ ID NO: 36 (human); test: ELISA, peptide on plate (10 ug/mL)
T8 sequence (peptide): EENMDDQWMADEMEIGY

[16] = target: T9, Ala mutant SEQ ID NO: 31 (human); test: ELISA, peptide on plate (10 ug/mL)
T9 sequence (peptide): EENMADQWMQDEMEIGY

[17] = target: T10, Ala mutant SEQ ID NO: 29 (human); test: ELISA, peptide on plate (10 ug/mL)
T10 sequence (peptide): EEAMDDQWMQDEMEIGY

[18] = target: T11, Ala mutant having 3-amino acid substitution, SEQ ID NO: 47 (human); test: ELISA, peptide on plate (10 ug/mL)
T11 sequence (peptide): EENMDDQWMAAAMEIGY

[19] = target: T12, Ala mutant SEQ ID NO: 41 (human); test: ELISA, peptide on plate (10 ug/mL)
T12 sequence (peptide): EENMDDQWMQDEMEAGY

[20] = target: T13, Ala mutant having 3-amino acid substitution, SEQ ID NO: 48 (human); test: ELISA, peptide on plate (10 ug/mL)
T13 sequence (peptide): EENMDDQWMQDEAAAGY

[21] = target: T14, Ala mutant having 3-amino acid substitution, SEQ ID NO: 46 (human); test: ELISA, peptide on plate (10 ug/mL)
T14 sequence (peptide): EENMDDAAAQDEMEIGY

[22] = target: T15, Ala mutant having 3-amino acid substitution, SEQ ID NO: 49 (human); test: ELISA, peptide on plate (10 ug/mL)
T15 sequence (peptide): EENMDDQWMQDEMEIAA

[23] = target: T16, Ala mutant SEQ ID NO: 40 (human); test: ELISA, peptide on plate (10 ug/mL)
T16 sequence (peptide): EENMDDQWMQDEMAIGY

[24] = target: T17, Ala mutant SEQ ID NO: 39 (human); test: ELISA, peptide on plate (10 ug/mL)
T17 sequence (peptide): EENMDDQWMQDEAEIGY

[25] = target: T18, Ala mutant SEQ ID NO: 30 (human); test: ELISA, peptide on plate (10 ug/mL)
T18 sequence (peptide): EENADDQWMQDEMEIGY

[26] = target: T19, Ala mutant SEQ ID NO: 33 (human); test: ELISA, peptide on plate (10 ug/mL)
T19 sequence (peptide): EENMDDAWMQDEMEIGY

[27] = target: T20, Ala mutant having 3-amino acid substitution, SEQ ID NO: 44 (human); test: ELISA, peptide on plate (10 ug/mL)
T20 sequence (peptide): AAAMDDQWMQDEMEIGY

[28] = target: full-length recombinant mouse PAD4 (mouse) (UniProt Q9Z183); test: ELISA, mouse PAD4 on plate, antibody 0.0625 ug/mL

Sequence of full-length recombinant mouse PAD4 (mouse) (Q9Z183 whole entry): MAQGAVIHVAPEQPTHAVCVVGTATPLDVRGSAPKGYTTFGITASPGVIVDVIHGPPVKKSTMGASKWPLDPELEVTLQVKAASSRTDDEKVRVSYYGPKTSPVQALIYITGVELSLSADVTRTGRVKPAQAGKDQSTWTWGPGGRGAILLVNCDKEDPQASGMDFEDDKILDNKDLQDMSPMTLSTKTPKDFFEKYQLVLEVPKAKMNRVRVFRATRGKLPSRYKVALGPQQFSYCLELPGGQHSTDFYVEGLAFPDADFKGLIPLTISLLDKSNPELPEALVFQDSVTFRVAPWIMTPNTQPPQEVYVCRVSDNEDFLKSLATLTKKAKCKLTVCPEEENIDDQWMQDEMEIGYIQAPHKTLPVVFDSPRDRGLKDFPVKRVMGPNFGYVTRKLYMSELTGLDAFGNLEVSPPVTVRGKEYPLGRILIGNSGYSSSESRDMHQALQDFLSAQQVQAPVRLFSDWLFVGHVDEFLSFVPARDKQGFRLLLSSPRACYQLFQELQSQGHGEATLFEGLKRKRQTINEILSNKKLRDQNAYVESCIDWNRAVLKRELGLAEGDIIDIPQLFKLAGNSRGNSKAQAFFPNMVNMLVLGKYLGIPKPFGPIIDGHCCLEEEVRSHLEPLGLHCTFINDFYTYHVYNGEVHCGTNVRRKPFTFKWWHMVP

B1: G8 (antibody, IgG1, V domains shown)
VH: AVTLDESGGGLQTPGGALSLVCKASGFTFSTYAMGWMRQAPGKGLEYVAAIRNDGSWTGYGAAVKGRATILRDNGQSTVRLQLSNLRAEDTGTYYCAKYTGSSGGSIGAWGHGTEVIVS
VL: ASTQPSSVSANLGGTVEITCSGGNRNYYYGWYQQKSPGSAPVTLIYANDKRPSNIPSRFSGSKSGSTGTLTITGVQAEDEAVYFCGTADTGKYVFGAGTTLTVL
In the case of B1, the absorbance 490 nm/630 nm [1] is reported as 0.205 OD, the absorbance 490 nm/630 nm [2] is reported as 1.42 OD and the absorbance 490 nm/630 nm [3] is reported as 0.555 OD. It also gave an absorbance 490 nm/630 nm [4] of 2.25 OD, an absorbance 490 nm/630 nm [5] of 0.122 OD and an absorbance 490 nm/630 nm [6] of 2.26 OD. For the same binder, the absorbance 490 nm/630 nm [7] was 2.25 OD, the absorbance 490 nm/630 nm [8] was 1.88 OD and the absorbance 490 nm/630 nm [9] was 1.88 OD. It also gave an absorbance 490 nm/630 nm [10] of 1.86 OD, an absorbance 490 nm/630 nm [11] of 1.94 OD and an absorbance 490 nm/630 nm [12] of 1.92 OD. The absorbance 490 nm/630 nm [13] was 1.96 OD, the absorbance 490 nm/630 nm [14] was 1.91 OD and the absorbance 490 nm/630 nm [15] was 1.92 OD. It also gave an absorbance 490 nm/630 nm [16] of 1.85 OD, an absorbance 490 nm/630 nm [17] of 1.91 OD and an absorbance 490 nm/630 nm [18] of 1.86 OD. It also gave an absorbance 490 nm/630 nm [19] of 1.85 OD, an absorbance 490 nm/630 nm [20] of 1.88 OD and an absorbance 490 nm/630 nm [21] of 0.178 OD. The absorbance 490 nm/630 nm [22] was 1.86 OD, the absorbance 490 nm/630 nm [23] was 1.89 OD and the absorbance 490 nm/630 nm [24] was 1.88 OD. It also gave an absorbance 490 nm/630 nm [25] of 1.93 OD, an absorbance 490 nm/630 nm [26] of 1.98 OD and an absorbance 490 nm/630 nm [27] of 1.9 OD. It also gave an absorbance 490 nm/630 nm [28] of 2.22 OD.

B2: G9 (antibody, IgG1, V domains shown)
VH: AVTLDESGGGLQTPGGALSLVCKASGFTFSTYAMGWMRQAPGKGLEYVAAIRNDGSWTGYGAAVKGRATILRDNGQSTVRLQLSNLRAEDTGTYYCAKYTGSSGGSIGAWGHGTEVIVS
VL: AVTQPASVSANLGGTVEITCSGGGRYYYGWYQQKSPGSAPVTVIYANDKRPSDIPSRFSGSKSGSTGTLTITGVQAEDEAVYFCGSAETSSYVFGAGTTLTVL
B2 showed an absorbance 490 nm/630 nm [1] of 0.181 OD, an absorbance 490 nm/630 nm [2] of 1.39 OD and an absorbance 490 nm/630 nm [3] of 0.542 OD. It also gave an absorbance 490 nm/630 nm [4] of 2.21 OD, an absorbance 490 nm/630 nm [5] of 0.079 OD and an absorbance 490 nm/630 nm [6] of 2.3 OD. The absorbance 490 nm/630 nm [7] was 2.25 OD, the absorbance 490 nm/630 nm [8] was 1.88 OD and the absorbance 490 nm/630 nm [9] was 1.85 OD. The absorbance 490 nm/630 nm [10] was 1.85 OD, the absorbance 490 nm/630 nm [11] was 1.96 OD and the absorbance 490 nm/630 nm [12] was 1.88 OD. The absorbance 490 nm/630 nm [13] was 1.93 OD, the absorbance 490 nm/630 nm [14] was 1.96 OD and the absorbance 490 nm/630 nm [15] was 1.87 OD. The absorbance 490 nm/630 nm [16] was 1.48 OD, the absorbance 490 nm/630 nm [17] was 1.94 OD and the absorbance 490 nm/630 nm [18] was 1.85 OD. It also gave an absorbance 490 nm/630 nm [19] of 1.89 OD, an absorbance 490 nm/630 nm [20] of 1.89 OD and an absorbance 490 nm/630 nm [21] of 0.131 OD. The absorbance 490 nm/630 nm [22] was 1.92 OD, the absorbance 490 nm/630 nm [23] was 1.88 OD and the absorbance 490 nm/630 nm [24] was 1.87 OD. For the same binder, the absorbance 490 nm/630 nm [25] was 2.03 OD, the absorbance 490 nm/630 nm [26] was 1.98 OD and the absorbance 490 nm/630 nm [27] was 1.92 OD. It also gave an absorbance 490 nm/630 nm [28] of 2.24 OD.
